Series [1] has as its target T1, rPdxR (Sco1417) (Streptomyces coelicolor A3(2) M145) (UniProt Q9RKX6).
T1 sequence: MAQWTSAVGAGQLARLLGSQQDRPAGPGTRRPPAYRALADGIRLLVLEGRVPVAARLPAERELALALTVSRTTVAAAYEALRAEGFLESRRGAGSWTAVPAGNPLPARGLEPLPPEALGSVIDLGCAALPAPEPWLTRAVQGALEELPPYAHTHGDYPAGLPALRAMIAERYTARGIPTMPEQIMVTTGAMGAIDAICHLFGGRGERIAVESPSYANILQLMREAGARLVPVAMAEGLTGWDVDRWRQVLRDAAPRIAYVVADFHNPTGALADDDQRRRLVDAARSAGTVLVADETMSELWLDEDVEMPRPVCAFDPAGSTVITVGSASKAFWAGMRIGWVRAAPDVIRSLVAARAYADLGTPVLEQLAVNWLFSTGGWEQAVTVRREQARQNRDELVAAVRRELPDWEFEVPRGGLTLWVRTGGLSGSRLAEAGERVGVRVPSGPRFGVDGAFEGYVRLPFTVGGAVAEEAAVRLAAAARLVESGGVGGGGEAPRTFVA
In words: competition.

Series [2] addresses T2, rPdxR (Sco1417) (Streptomyces coelicolor A3(2) M145, UniProt Q9RKX6).
T2 sequence: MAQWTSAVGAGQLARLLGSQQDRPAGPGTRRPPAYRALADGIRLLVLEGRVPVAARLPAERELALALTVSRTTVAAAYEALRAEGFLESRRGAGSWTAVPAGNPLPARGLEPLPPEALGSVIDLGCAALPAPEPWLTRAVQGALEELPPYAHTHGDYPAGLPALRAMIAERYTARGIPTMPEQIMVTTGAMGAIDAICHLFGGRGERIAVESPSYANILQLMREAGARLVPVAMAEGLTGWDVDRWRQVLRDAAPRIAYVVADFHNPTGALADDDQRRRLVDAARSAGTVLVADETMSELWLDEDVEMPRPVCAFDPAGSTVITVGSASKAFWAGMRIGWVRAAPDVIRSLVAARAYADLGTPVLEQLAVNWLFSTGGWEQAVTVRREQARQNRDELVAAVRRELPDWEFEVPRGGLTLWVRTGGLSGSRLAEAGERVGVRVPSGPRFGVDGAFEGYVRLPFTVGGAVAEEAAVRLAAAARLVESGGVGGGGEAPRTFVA
The experiment in a line: EMSA.

The target in series [3] is T2, rPdxR (Sco1417). In words: EMSA. This is another data set of the same source.

Where two headings read alike, the source gives them in different places.

In the case of “TGCTGGACACGGGTACCTCACTGGGGAGAAGGGGGGTTGTGCAGCAACGAGGAAACGTGAGGTGAGCAGGCCACAGCAAGGGCCAATGAGAAGGCGGTGGATCGTTTTCGTCCCCCGGGCGCTACGCCGCCCGCTCCACCAGGGCGGCCGGCGACTCGTCGTCCATCTCGAAGGCCAGCGGGAAGGGCGCGTGCCCGGCGAGGCGGAACCAGCGGACCTTGCGGTGCTCGCGCAGCCTGCGGGCCGCCCCCACCGCGTCGTTGTGGAAGCGGCGG (double strand) [pdxSTp]”, in series [1], the binding entry is listed as “binds”.
“ACTGCGCCATGGAAATCAGTCCACCTTCCCCAAATTGGCCATGGTTGACTCTTCTTCTGAAGCCACAGGGTGTCATGTGGCAGTCCACTACCACCACCCCAGGGGGCACTTCTTGTCCAGGCAGTCCAGACAGTCGAGGCAATCCGGGCAGTCCGGATGGTCCGGGCGACTCGCGCGGCGGCTGACGCAGCTCTACGGCGGTCTCGTCCTGTACGGAGCGAGTTCGGCGCTGCTGGTCAGGTCCGGGCTCGGCCTCGAACCGTGGAACGTGCTGCACCAG (double strand) [pdxRp]”: in series [1], the binding result is reported as “binds”.

B1: ST2 (dsDNA)
DNA 1: CTTCTCATTGGCCCTTGCTGTGGCCTGCTC
DNA 2: GAGCAGGCCACAGCAAGGGCCAATGAGAAG
In the case of B1, in the series with rPdxR (Sco1417) [2], the binding result is “binds”.

B2: R2 (dsDNA)
DNA 1: TCAACCATGGCCAATTTGGGGAAGGTGGACTGATTT
DNA 2: AAATCAGTCCACCTTCCCCAAATTGGCCATGGTTGA
Turning to B2, in the series with rPdxR (Sco1417) [2], the binding result is listed as “binds”.

B3: ST (dsDNA)
DNA 1: ACGAAAACGATCCACCGCCTTCTCATTGGCCCTTGCTGTGGCCTGCT
DNA 2: AGCAGGCCACAGCAAGGGCCAATGAGAAGGCGGTGGATCGTTTTCGT
Consider B3, for which the binding result with rPdxR (Sco1417) [2] was “binds”.

B4: ST2a (dsDNA)
DNA 1: CTTCTCATTGGCCCTTGCTAAAACCTGCTC
DNA 2: GAGCAGGTTTTAGCAAGGGCCAATGAGAAG
As to B4, the binding result with rPdxR (Sco1417) [3] was “no binding”.

B5: ST2b (dsDNA)
DNA 1: CTTCTCAAAAACCCTTGCTGTGGCCTGCTC
DNA 2: GAGCAGGCCACAGCAAGGGTTTTTGAGAAG
With B5, the binding result in the series with rPdxR (Sco1417) [3] is “no binding”.

B6: R1 (dsDNA)
DNA 1: TGGGGTGGTGGTAGTGGACTGCCACATGACACCCTGTGGCTTCAGAA
DNA 2: TTCTGAAGCCACAGGGTGTCATGTGGCAGTCCACTACCACCACCCCA
For the molecule B6, the binding result with rPdxR (Sco1417) [2] is “binds”.

The values above are taken from article PMC12220430.
